Data on 39 variants can be found in the RNAGym collection of RNA variant scans (doi:10.7554/elife.90254).

To fix the notation:
B1: LINE1-full (parent)
chain: UACGUAGGUGGUUUUCCCCUGAUAGUGCUAAGGGGGCCUGGAAGUUUGGACUGGGCAGAGCUCAACACAGCGUGGCAAAGUGGCUGUGGCUAGACUGCCUCUCUGGAUUCCUCGUCACUCAGCAGGGCAUCUCUGAGAGAAAUGCC

The series covers variants of B1. The experiment in a line: self-cleavage, relative activity (ratio to wild type); higher = more cleavage; in vitro, sequencing; the parent is a self-cleaving ribozyme.
UACGUAGGUGGUUUUCCCCUGAUAGUGCUAAGGGGGCCUGGAAGUUUGGACUGGGCAGAGCUCAACACAGCGUGGCAAAGUGGCUGUGGCUAGACUGCCUCUCUGGGUUCCUCGUAACUCAGCAGGGCAUCUCUGAGAGAAAUGCC: the self-cleavage worked out at 1.71. Regarding UACGUAGGUGGUUUUCCCCUGAUAGUGCUAAGGGGGCCUGGAAGUUUGGACUGGGCAGAGCUCAACACAGCGUGGCAAAGUGGCUGUGGCUAGACUGCCUCUCUGGGUUCCUCGUCACUCAGCAGGGCAUCUCUGAGAGAAUUGCC, the self-cleavage stood at 0.74. Turning to UACGUAGGUGGUUUUCCCCUGAUAGUGCUAAGGGGGCCUGGAAGUUUGGACUGGGCAGAGCUCAACACAGCGUGGCAAAGUGGCUGUGGCUAGACUGCCUCUCUGGGUCCCUCGUCACUCAGCAGGGCAUCUCUGAGAGAAAUGCC, the self-cleavage is 1.14. For UACGUAGGUGGUUUUCCCCUGAUAGUGCUAAGGGGGCCUGGAAGUUUGGACUGGGCAGAGCUCAACACAGCGUGGCAAAGUGGCUGUGGCUAGACUGCCUCUCUGGGUUCCUCGUCACUCAGCAGGGCAUCUCUGAUAGAAAUGCC the value was 2.3; for UACGUAGGUGGUUUUCCCCUGAUAGUGCUAAGGGGGCCUGGAAGUUUGGACUGGGCAGAGCUCAACACAGCGUGGCAAAGUGGCUGUGGCUAGACUGCCUCUCUGGGUUCCUCGUCACUCAGCAGGGCGUCUCUGAGAGAAAUGCC, 1.63; for UACGUAGGUGGUUUUCCCCUGAUAGUGCUAAGGGGGCCUGGAAGUUUGGACUGGGCAGAGCUCAACACAGCGUGGCAAAGUGGCUGUGGCUAGACUGCCUCUCUGGGUUCCUCAUCACUCAGCAGGGCAUCUCUGAGAGAAAUGCC, 1.18. Consider UACGUAGGUGGUUUUCCCCUGAUAGUGCUAAGGGGGCCUGGAAGUUUGGACUGGGCAGAGCUCAACACAGCGUGGCAAAGUGGCUGUGGCUAGACUGCCUCUCUGGGUUCCUCGUCACUCAGCAGGGCAUCUCUGAGAGAAAAGCC, for which the self-cleavage amounted to 1.51.

For the variant UACGUAGGUGGUUUUCCCCUGAUAGUGCUAAGGGGGCCUGGAAGUUUGGACUGGGCAGAGCUCAACACAGCGUGGCAAAGUGGCUGUGGCUAGACUGCCUCUCUGGCUUCCUCGUCACUCAGCAGGGCAUCUCUGAGAGAAAAGCC, the self-cleavage came to 1.79. As for UACGUAGGUGGUUUUCCCCUGAUAGUGCUAAGGGGGCCUGGAAGUUUGGACUGGGCAGAGCUCAACACAGCGUGGCAAAGUGGCUGUGGCUAGACUGCCUCUCUGGCUUCCUCGUCACCCAGCAGGGCAUCUCUGAGAGAAAUGCC, the self-cleavage is 2.19. Take UACGUAGGUGGUUUUCCCCUGAUAGUGCUAAGGGGGCCUGGAAGUUUGGACUGGGCAGAGCUCAACACAGCGUGGCAAAGUGGCUGUGGCUAGACUGCCUCUCUGGGUUCCUCGUCACUCAGCAGGGCAUCUCUGAGAGAAAUGUC: the self-cleavage is 1.45. Regarding UACGUAGGUGGUUUUCCCCUGAUAGUGCUAAGGGGGCCUGGAAGUUUGGACUGGGCAGAGCUCAACACAGCGUGGCAAAGUGGCUGUGGCUAGACUGCCUCUCUGGGUUCCUCGUCACUCAGCAGGGCAUCUCUGAGGGAAAUGCC, the self-cleavage is 1.42.

Turning to UACGUAGGUGGUUUUCCCCUGAUAGUGCUAAGGGGGCCUGGAAGUUUGGACUGGGCAGAGCUCAACACAGCGUGGCAAAGUGGCUGUGGCUAGACUGCCUCUCUGGCUUCCUCGUCACUCAGCAGGGCAUCUCUGGGAGAAAUGCC, the self-cleavage is 1.73. With UACGUAGGUGGUUUUCCCCUGAUAGUGCUAAGGGGGCCUGGAAGUUUGGACUGGGCAGAGCUCAACACAGCGUGGCAAAGUGGCUGUGGCUAGACUGCCUCUCUGGCUUCCUCGUCACUCAGCAGGGCAUCUCUGUGAGAAAUGCC, the self-cleavage is 1.2. UACGUAGGUGGUUUUCCCCUGAUAGUGCUAAGGGGGCCUGGAAGUUUGGACUGGGCAGAGCUCAACACAGCGUGGCAAAGUGGCUGUGGCUAGACUGCCUCUCUGGGUUACUCGUCACUCAGCAGGGCAUCUCUGAGAGAAAUGCC: the self-cleavage is 1.13. Consider UACGUAGGUGGUUUUCCCCUGAUAGUGCUAAGGGGGCCUGGAAGUUUGGACUGGGCAGAGCUCAACACAGCGUGGCAAAGUGGCUGUGGCUAGACUGCCUCUCUGGGUUCCUCGUCACUCAGCAGGGCAUCUCUAAGAGAAAUGCC, for which the self-cleavage was determined as 1.64. As for UACGUAGGUGGUUUUCCCCUGAUAGUGCUAAGGGGGCCUGGAAGUUUGGACUGGGCAGAGCUCAACACAGCGUGGCAAAGUGGCUGUGGCUAGACUGCCUCUCUGGCUUCCUCGUCACUCAGCAGGGCACCUCUGAGAGAAAUGCC, the self-cleavage is 0.

For the variant UACGUAGGUGGUUUUCCCCUGAUAGUGCUAAGGGGGCCUGGAAGUUUGGACUGGGCAGAGCUCAACACAGCGUGGCAAAGUGGCUGUGGCUAGACUGCCUCUCUGGGUUCCUCGUCACUCAGCAGGGCACCUCUGAGAGAAAUGCC, the self-cleavage came to 2.26. For UACGUAGGUGGUUUUCCCCUGAUAGUGCUAAGGGGGCCUGGAAGUUUGGACUGGGCAGAGCUCAACACAGCGUGGCAAAGUGGCUGUGGCUAGACUGCCUCUCUGGUUUCCUCGUCACUCGGCAGGGCAUCUCUGAGAGAAAUGCC the value was 1.62; for UACGUAGGUGGUUUUCCCCUGAUAGUGCUAAGGGGGCCUGGAAGUUUGGACUGGGCAGAGCUCAACACAGCGUGGCAAAGUGGCUGUGGCUAGACUGCCUCUCUGGGUUCCUCGUCACCCAGCAGGGCAUCUCUGAGAGAAAUGCC, 1.31.

Regarding UACGUAGGUGGUUUUCCCCUGAUAGUGCUAAGGGGGCCUGGAAGUUUGGACUGGGCAGAGCUCAACACAGCGUGGCAAAGUGGCUGUGGCUAGACUGCCUCUCUGGGUUCCUCGUCACACAGCAGGGCAUCUCUGAGAGAAAUGCC, the self-cleavage amounted to 1.91. Take UACGUAGGUGGUUUUCCCCUGAUAGUGCUAAGGGGGCCUGGAAGUUUGGACUGGGCAGAGCUCAACACAGCGUGGCAAAGUGGCUGUGGCUAGACUGCCUCUCUGGGUUCCUCGUCACGCAGCAGGGCAUCUCUGAGAGAAAUGCC: the self-cleavage was found to be 0.84.

Consider UACGUAGGUGGUUUUCCCCUGAUAGUGCUAAGGGGGCCUGGAAGUUUGGACUGGGCAGAGCUCAACACAGCGUGGCAAAGUGGCUGUGGCUAGACUGCCUCUCUGGGUUCCUCGUCACUCAGCAGGGCAUCUCUGAGAGGAAUGCC, for which the self-cleavage worked out at 1.87. For UACGUAGGUGGUUUUCCCCUGAUAGUGCUAAGGGGGCCUGGAAGUUUGGACUGGGCAGAGCUCAACACAGCGUGGCAAAGUGGCUGUGGCUAGACUGCCUCUCUGGGUUCCUCGUCACUCAGCAGGGCAUCUCUGAGAAAAAUGCC the value was 1.19; for UACGUAGGUGGUUUUCCCCUGAUAGUGCUAAGGGGGCCUGGAAGUUUGGACUGGGCAGAGCUCAACACAGCGUGGCAAAGUGGCUGUGGCUAGACUGCCUCUCUGGGUUCCUCGUCACUCAGCAGGGCAUCUCUGAGAUAAAUGCC, 2.42. For UACGUAGGUGGUUUUCCCCUGAUAGUGCUAAGGGGGCCUGGAAGUUUGGACUGGGCAGAGCUCAACACAGCGUGGCAAAGUGGCUGUGGCUAGACUGCCUCUCUGGGUUCCUCGUCACUCAGCGGGGCAUCUCUGAGAGAAAUGCC the value was 0.96. With UACGUAGGUGGUUUUCCCCUGAUAGUGCUAAGGGGGCCUGGAAGUUUGGACUGGGCAGAGCUCAACACAGCGUGGCAAAGUGGCUGUGGCUAGACUGCCUCUCUGGGCUCCUCGUCACUCAGCAGGGCAUCUCUGAGAGAAAUGCC, the self-cleavage was determined as 1.42.

Take UACGUAGGUGGUUUUCCCCUGAUAGUGCUAAGGGGGCCUGGAAGUUUGGACUGGGCAGAGCUCAACACAGCGUGGCAAAGUGGCUGUGGCUAGACUGCCUCUCUGGGUUCCUCGUCACUCUGCAGGGCAUCUCUGAGAGAAAUGCC: the self-cleavage was 1.28. As to UACGUAGGUGGUUUUCCCCUGAUAGUGCUAAGGGGGCCUGGAAGUUUGGACUGGGCAGAGCUCAACACAGCGUGGCAAAGUGGCUGUGGCUAGACUGCCUCUCUGGCUUCCUCGCCACUCAGCAGGGCAUCUCUGAGAGAAAUGCC, the self-cleavage was 1.38. For UACGUAGGUGGUUUUCCCCUGAUAGUGCUAAGGGGGCCUGGAAGUUUGGACUGGGCAGAGCUCAACACAGCGUGGCAAAGUGGCUGUGGCUAGACUGCCUCUCUGGGUUCCUCGUCACUCAGCAGUGCAUCUCUGAGAGAAAUGCC the value was 1.48; for UACGUAGGUGGUUUUCCCCUGAUAGUGCUAAGGGGGCCUGGAAGUUUGGACUGGGCAGAGCUCAACACAGCGUGGCAAAGUGGCUGUGGCUAGACUGCCUCUCUGGGUUCCUCGUCACUCAGCAGCGCAUCUCUGAGAGAAAUGCC, 2.78.

In the case of UACGUAGGUGGUUUUCCCCUGAUAGUGCUAAGGGGGCCUGGAAGUUUGGACUGGGCAGAGCUCAACACAGCGUGGCAAAGUGGCUGUGGCUAGACUGCCUCUCUGGGUUCCUCGGCACUCAGCAGGGCAUCUCUGAGAGAAAUGCC, the self-cleavage was 0. UACGUAGGUGGUUUUCCCCUGAUAGUGCUAAGGGGGCCUGGAAGUUUGGACUGGGCAGAGCUCAACACAGCGUGGCAAAGUGGCUGUGGCUAGACUGCCUCUCUGGUUUCCUCGUCGCUCAGCAGGGCAUCUCUGAGAGAAAUGCC: the self-cleavage amounted to 1.34. With UACGUAGGUGGUUUUCCCCUGAUAGUGCUAAGGGGGCCUGGAAGUUUGGACUGGGCAGAGCUCAACACAGCGUGGCAAAGUGGCUGUGGCUAGACUGCCUCUCUGGGUUCCUCGUCAUUCAGCAGGGCAUCUCUGAGAGAAAUGCC, the self-cleavage is 1.56.

On to UACGUAGGUGGUUUUCCCCUGAUAGUGCUAAGGGGGCCUGGAAGUUUGGACUGGGCAGAGCUCAACACAGCGUGGCAAAGUGGCUGUGGCUAGACUGCCUCUCUGGGUUCCUCGUCACUCAGCAUGGCAUCUCUGAGAGAAAUGCC, for which the self-cleavage amounted to 1.96. For UACGUAGGUGGUUUUCCCCUGAUAGUGCUAAGGGGGCCUGGAAGUUUGGACUGGGCAGAGCUCAACACAGCGUGGCAAAGUGGCUGUGGCUAGACUGCCUCUCUGGGUUCCUCGUCACUCAGCAGGGCAUCUCUGUGAGAAAUGCC the value was 1.82.

As for UACGUAGGUGGUUUUCCCCUGAUAGUGCUAAGGGGGCCUGGAAGUUUGGACUGGGCAGAGCUCAACACAGCGUGGCAAAGUGGCUGUGGCUAGACUGCCUCUCUGGGUUCCUCGUCACUCAGCAGGGCAUCACUGAGAGAAAUGCC, the self-cleavage is 0.88. Regarding UACGUAGGUGGUUUUCCCCUGAUAGUGCUAAGGGGGCCUGGAAGUUUGGACUGGGCAGAGCUCAACACAGCGUGGCAAAGUGGCUGUGGCUAGACUGCCUCUCUGGCUUCCUCGUCACUCAGCAGGGCUUCUCUGAGAGAAAUGCC, the self-cleavage is 2.42. On to UACGUAGGUGGUUUUCCCCUGAUAGUGCUAAGGGGGCCUGGAAGUUUGGACUGGGCAGAGCUCAACACAGCGUGGCAAAGUGGCUGUGGCUAGACUGCCUCUCUGGGUUCCUAGUCACUCAGCAGGGCAUCUCUGAGAGAAAUGCC, for which the self-cleavage came to 1.94. The figure for UACGUAGGUGGUUUUCCCCUGAUAGUGCUAAGGGGGCCUGGAAGUUUGGACUGGGCAGAGCUCAACACAGCGUGGCAAAGUGGCUGUGGCUAGACUGCCUCUCUGGGUUCCUUGUCACUCAGCAGGGCAUCUCUGAGAGAAAUGCC is 1.39.
